# According to paper PMC6914362 (Nature, 2019):
# What was measured:
# [1] = target: the molecule itself; test: SEC
# [2] = target: the molecule itself; test: SEC; remark: listed apart in the source
# [3] = target: the molecule itself; test: native gel or EMSA
Protein,stoichiometry N [2],also measured
"SHMT1 wild type (enzyme, human, UniProt P34896 1-483, looked up) MTMPVNGAHKDADLWSSHDKMLAQPLKDSDVEVYNIIKKESNRQRVGLELIASENFASRAVLEALGSCLNNKYSEGYPGQRYYGGTEFIDELETLCQKRALQAYKLDPQCWGVNVQPYSGSPANFAVYTALVEPHGRIMGLDLPDGGHLTHGFMTDKKKISATSIFFESMPYKVNPDTGYINYDQLEENARLFHPKLIIAGTSCYSRNLEYARLRKIADENGAYLMADMAHISGLVAAGVVPSPFEHCHVVTTTTHKTLRGCRAGMIFYRKGVKSVDPKTGKEILYNLESLINSAVFPGLQGGPHNHAIAGVAVALKQAMTLEFKVYQHQVVANCRALSEALTELGYKIVTGGSDNHLILVDLRSKGTDGGRAEKVLEACSIACNKNTCPGDRSALRPSGLRLGTPALTSRGLLEKDFQKVAHFIHRGIELTLQIQSDTGVRATLKEFKERLAGDKYQAAVQALREEVESFASLFPLPGLPDF",–,stoichiometry N [1]: 4
"SHMT2ΔN (residues 18-504), dimeric (PLP-free) form (enzyme, human, UniProt P34897 18-504, looked up) QLVRMAIRAQHSNAAQTQTGEANRGWTGQESLSDSDPEMWELLQREKDRQCRGLELIASENFCSRAALEALGSCLNNKYSEGYPGKRYYGGAEVVDEIELLCQRRALEAFDLDPAQWGVNVQPYSGSPANLAVYTALLQPHDRIMGLDLPDGGHLTHGYMSDVKRISATSIFFESMPYKLNPKTGLIDYNQLALTARLFRPRLIIAGTSAYARLIDYARMREVCDEVKAHLLADMAHISGLVAAKVIPSPFKHADIVTTTTHKTLRGARSGLIFYRKGVKAVDPKTGREIPYTFEDRINFAVFPSLQGGPHNHAIAAVAVALKQACTPMFREYSLQVLKNARAMADALLERGYSLVSGGTDNHLVLVDLRPKGLDGARAERVLELVSITANKNTCPGDRSAITPGGLRLGAPALTSRQFREDDFRRVVDFIDEGVNIGLEVKSKTAKLQDFKSFLLKDSETSQRLANLRQRVEQFARAFPMPGFDEH",2,–
"SHMT2ΔN+A285T (enzyme, human, UniProt P34897 18-504, looked up) QLVRMAIRAQHSNAAQTQTGEANRGWTGQESLSDSDPEMWELLQREKDRQCRGLELIASENFCSRAALEALGSCLNNKYSEGYPGKRYYGGAEVVDEIELLCQRRALEAFDLDPAQWGVNVQPYSGSPANLAVYTALLQPHDRIMGLDLPDGGHLTHGYMSDVKRISATSIFFESMPYKLNPKTGLIDYNQLALTARLFRPRLIIAGTSAYARLIDYARMREVCDEVKAHLLADMAHISGLVAAKVIPSPFKHADIVTTTTHKTLRGTRSGLIFYRKGVKAVDPKTGREIPYTFEDRINFAVFPSLQGGPHNHAIAAVAVALKQACTPMFREYSLQVLKNARAMADALLERGYSLVSGGTDNHLVLVDLRPKGLDGARAERVLELVSITANKNTCPGDRSAITPGGLRLGAPALTSRQFREDDFRRVVDFIDEGVNIGLEVKSKTAKLQDFKSFLLKDSETSQRLANLRQRVEQFARAFPMPGFDEH",2,–
"SHMT2ΔN (residues 18-504), PLP-bound tetramer (enzyme, human, UniProt P34897 18-504, looked up, pyridoxal-5'-phosphate (PLP) bound, internal aldimine linkage; PLP acceptor Lys280) QLVRMAIRAQHSNAAQTQTGEANRGWTGQESLSDSDPEMWELLQREKDRQCRGLELIASENFCSRAALEALGSCLNNKYSEGYPGKRYYGGAEVVDEIELLCQRRALEAFDLDPAQWGVNVQPYSGSPANLAVYTALLQPHDRIMGLDLPDGGHLTHGYMSDVKRISATSIFFESMPYKLNPKTGLIDYNQLALTARLFRPRLIIAGTSAYARLIDYARMREVCDEVKAHLLADMAHISGLVAAKVIPSPFKHADIVTTTTHKTLRGARSGLIFYRKGVKAVDPKTGREIPYTFEDRINFAVFPSLQGGPHNHAIAAVAVALKQACTPMFREYSLQVLKNARAMADALLERGYSLVSGGTDNHLVLVDLRPKGLDGARAERVLELVSITANKNTCPGDRSAITPGGLRLGAPALTSRQFREDDFRRVVDFIDEGVNIGLEVKSKTAKLQDFKSFLLKDSETSQRLANLRQRVEQFARAFPMPGFDEH",4,–
"Flag-HA epitope-tagged SHMT2ΔN (MEFs) (enzyme, human, UniProt P34897 18-504, looked up) QLVRMAIRAQHSNAAQTQTGEANRGWTGQESLSDSDPEMWELLQREKDRQCRGLELIASENFCSRAALEALGSCLNNKYSEGYPGKRYYGGAEVVDEIELLCQRRALEAFDLDPAQWGVNVQPYSGSPANLAVYTALLQPHDRIMGLDLPDGGHLTHGYMSDVKRISATSIFFESMPYKLNPKTGLIDYNQLALTARLFRPRLIIAGTSAYARLIDYARMREVCDEVKAHLLADMAHISGLVAAKVIPSPFKHADIVTTTTHKTLRGARSGLIFYRKGVKAVDPKTGREIPYTFEDRINFAVFPSLQGGPHNHAIAAVAVALKQACTPMFREYSLQVLKNARAMADALLERGYSLVSGGTDNHLVLVDLRPKGLDGARAERVLELVSITANKNTCPGDRSAITPGGLRLGAPALTSRQFREDDFRRVVDFIDEGVNIGLEVKSKTAKLQDFKSFLLKDSETSQRLANLRQRVEQFARAFPMPGFDEH",–,stoichiometry N [3]: 2
